Target: rhodopsin (bovine (endogenous in bovine retina)) (UniProt P02699)
Sequence (P02699 whole entry): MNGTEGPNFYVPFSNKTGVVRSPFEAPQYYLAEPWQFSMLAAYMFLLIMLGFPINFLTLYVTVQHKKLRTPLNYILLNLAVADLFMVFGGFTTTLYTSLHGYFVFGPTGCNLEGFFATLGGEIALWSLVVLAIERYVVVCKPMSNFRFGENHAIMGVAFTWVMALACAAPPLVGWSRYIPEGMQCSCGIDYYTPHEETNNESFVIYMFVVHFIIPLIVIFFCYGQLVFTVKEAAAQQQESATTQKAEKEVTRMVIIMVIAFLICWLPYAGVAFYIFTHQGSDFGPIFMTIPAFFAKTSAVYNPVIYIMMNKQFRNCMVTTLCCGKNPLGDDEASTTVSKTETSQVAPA

Sequence of transducin, heterotrimeric G protein (Gt) (P04695 whole entry): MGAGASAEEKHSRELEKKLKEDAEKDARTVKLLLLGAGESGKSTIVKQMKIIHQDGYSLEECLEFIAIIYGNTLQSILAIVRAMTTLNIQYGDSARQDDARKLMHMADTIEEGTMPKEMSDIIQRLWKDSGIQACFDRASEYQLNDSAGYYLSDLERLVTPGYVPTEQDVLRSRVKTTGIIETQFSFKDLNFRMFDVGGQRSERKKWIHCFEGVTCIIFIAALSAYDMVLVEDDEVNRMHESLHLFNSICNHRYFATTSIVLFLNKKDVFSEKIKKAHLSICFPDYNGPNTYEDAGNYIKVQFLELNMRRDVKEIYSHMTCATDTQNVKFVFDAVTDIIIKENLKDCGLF
Sequence of transducin, heterotrimeric G protein (Gt) (P62871 whole entry): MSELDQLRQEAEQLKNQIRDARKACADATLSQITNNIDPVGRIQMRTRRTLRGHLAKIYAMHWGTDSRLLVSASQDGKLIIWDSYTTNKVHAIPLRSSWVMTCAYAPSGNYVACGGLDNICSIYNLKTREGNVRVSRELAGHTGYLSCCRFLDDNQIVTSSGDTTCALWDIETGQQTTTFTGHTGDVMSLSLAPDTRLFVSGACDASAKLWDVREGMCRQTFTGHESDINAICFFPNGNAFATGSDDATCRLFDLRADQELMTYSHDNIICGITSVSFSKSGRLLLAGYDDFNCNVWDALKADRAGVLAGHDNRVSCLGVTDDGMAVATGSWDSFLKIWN
Sequence of transducin, heterotrimeric G protein (Gt) (P02698 whole entry): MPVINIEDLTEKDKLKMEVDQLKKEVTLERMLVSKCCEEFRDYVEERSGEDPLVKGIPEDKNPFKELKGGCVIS

ratio Gt•GDP:Gt by native MS with 90 μM compound 1, ROS membrane present, from dark (1.2) to 15 s of illumination (0.6) (ratio Gt•GDP:Gt): 1.2
ratio Gt•GDP:Gt by native MS with 90 μM compound 6, ROS membrane present, from dark (2.0) to 15 s of illumination (0.8) (ratio Gt•GDP:Gt): 2
ratio Gt•GDP:Gt by native MS, control without compound, ROS membrane present, from dark (4.1) to 15 s of illumination (1.2) (ratio Gt•GDP:Gt): 4.1
Substance: transducin, heterotrimeric G protein (Gt) (from UniProt P04695 1-350; P62871 1-340; P02698 1-74) (complex)
